Experimental data from patent publication US20250281611A1 (BIOSCEPTRE AUST, published 2025).

T1: CD19 (UniProt P15391 20-556, limits assumed)
T1 construct: whole, on cells; also called CD19 on JeKo-1
T1 sequence (looked up): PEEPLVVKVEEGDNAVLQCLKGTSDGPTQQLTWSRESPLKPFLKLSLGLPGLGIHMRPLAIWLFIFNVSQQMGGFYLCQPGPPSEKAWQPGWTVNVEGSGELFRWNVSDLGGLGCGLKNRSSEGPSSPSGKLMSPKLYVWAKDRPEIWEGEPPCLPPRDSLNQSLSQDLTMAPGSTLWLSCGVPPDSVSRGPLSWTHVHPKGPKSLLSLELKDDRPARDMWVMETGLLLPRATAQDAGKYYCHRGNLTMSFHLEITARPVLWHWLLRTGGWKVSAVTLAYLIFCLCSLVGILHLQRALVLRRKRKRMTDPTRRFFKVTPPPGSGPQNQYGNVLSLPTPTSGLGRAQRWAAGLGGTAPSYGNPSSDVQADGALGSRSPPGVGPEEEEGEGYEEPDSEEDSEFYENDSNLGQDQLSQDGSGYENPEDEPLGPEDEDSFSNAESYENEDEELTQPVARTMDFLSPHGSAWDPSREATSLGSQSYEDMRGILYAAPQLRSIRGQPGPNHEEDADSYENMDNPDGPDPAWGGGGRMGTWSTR


Columns and labels:
[1] = target: T2, nfP2X7 CAR 1; assay: flow cytometry, nfP2X7 CAR 1 T cells (EGFR+ gate), anti-His-FITC detection
T2 construct: CAR-positive cells gated by the co-expressed EGFR marker; also called nfP2X7 targeted CAR; nfP2X7 CAR on EGFR+ T cells

[2] = target: T2, nfP2X7 CAR 1; assay: flow cytometry, anti-His-FITC, MFI on EGFR+ (CAR+) over EGFR- (CAR-) T cells
In short: (§1)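 CAR T cells incubated with BRiDGE variants at saturating concentrations; bound BRiDGE detected with anti-His-FITC by flow cytometry. EGFR marks CAR expression. Value is median fluorescence intensity on EGFR+ (CAR+) cells divided by that on EGFR− (CAR−) cells.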

[3] = target: T2, nfP2X7 CAR 1; assay: flow cytometry, anti-His-FITC, MFI on EGFR+ (CAR+) T cells over background 0.44
In short: as §1

[4] = target: T1, CD19; assay: flow cytometry, JeKo-1 cells, bridge at saturating conc., anti-His-FITC detection
Protocol: (§2) JeKo-1 cells were incubated with different CD19 BRiDGE variants at saturating concentrations. […] The MFI intensity correlates with the number of secondary bound antibodies bound to the CD19 BRiDGE variants that are only detected if they are bound to the JeKo-1 cells. MFI: median fluorescence intensity. BLitz: Bio-Layer interferometry (BLI) technology using HIS-tag identification tips. […] The higher the MFIR, the stronger the binding.

[5] = target: T1, CD19; assay: flow cytometry, JeKo-1 cells, bridge at saturating conc., BIL03s-AF647 detection
Protocol: as §2

[6] = target: T1, CD19; assay: flow cytometry, JeKo-1 cells, anti-His-FITC detection, MFI over no-bridge control
Protocol: as §2

[7] = target: T1, CD19; assay: flow cytometry, JeKo-1 cells, BIL03s-AF647 detection, MFI over no-bridge control
Protocol: as §2

| MFI HisTag FITC in EGFR+ Population [1] | HisTag MFI Ratio of EGFR+/EGFR- [2] | HisTag MFI Ratio (background 0.44) [3] | MFI HisTag FITC [4] | MFI Bil03 AF647 [5] | MFIR HisTag FITC [6] | MFIR BIL03 AF647 [7] | Binder |
| --- | --- | --- | --- | --- | --- | --- | --- |
| 2.17 | 4.2 | 4.9 | 2.36 | 5.53 | 3.06 | 12 | CD19 BRIDGE variant B26 (Fab, V domains shown) VH: EVQLVESGGGLVKPGGSLKLSCAASGYTFTSYVMHWVRQAPGKGLEWIGYINPYNDGTKYNEKFQGRVTISSDKSISTAYMELSSLRSEDTAMYYCARGTYYYGTRVFDYWGQGTLVTVSS VL: DIVMTQSPATLSLSPGERATLSCRSSKSLQNVNGNTYLYWFQQKPGQSPQLLIYRMSNLNSGVPDRFSGSGSGTEFTLTISSLEPEDFAVYYCMQHLEYPITFGAGTKLEIKR |
| 2.35 | 4.1 | 5.3 | 2.5 | 9.6 | 3.25 | 20.9 | CD19 BRIDGE variant B27 (Fab) heavy: EVQLVESGGGLVKPGGSLKLSCAASGYTFTSYVMHWVRQAPGKGLEWIGYINPYNDGTKYNEKFQGRVTISSDKSISTAYMELSSLRSEDTAMYYCARGTYYYGTRVFDYWGQGTLVTVSSASTKGPSVFPLAPSSKSTSGGTAALGCLVKDYFPEPVTVSWNSGALTSGVHTFPAVLQSSGLYSLSSVVTVPSSSLGTQTYICNVNHKPSNTKVDKKVEPKSCHHHHHH light: DFPGHNYTTRNILPGLNITSGGGGSEPKSSDKTHTGSDIVMTQSPATLSLSPGERATLSCRSSKSLQNVNGNTYLYWFQQKPGQSPQLLIYRMSNLNSGVPDRFSGSGSGTEFTLTISSLEPEDFAVYYCMQHLEYPITFGAGTKLEIKRTVAAPSVFIFPPSDEQLKSGTASVVCLLNNFYPREAKVQWKVDNALQSGNSQESVTEQDSKDSTYSLSSTLTLSKADYEKHKVYACEVTHQGLSSPVTKSFNRGEC |
| 2.12 | 4.3 | 4.8 | 2.35 | 7.48 | 3.05 | 16.3 | CD19 BRIDGE variant B30 (Fab) heavy: EVQLVESGGGLVKPGGSLKLSCAASGYTFTSYVMHWVRQAPGKGLEWIGYINPYNDGTKYNEKFQGRVTISSDKSISTAYMELSSLRSEDTAMYYCARGTYYYGTRVFDYWGQGTLVTVSSASTKGPSVFPLAPSSKSTSGGTAALGCLVKDYFPEPVTVSWNSGALTSGVHTFPAVLQSSGLYSLSSVVTVPSSSLGTQTYICNVNHKPSNTKVDKKVEPKSCHHHHHH light: DFPGHNYTTRNILPGLNITSTFHKTSGSGKGGGGSEPKSSDKTHTGSDIVMTQSPATLSLSPGERATLSCRSSKSLQNVNGNTYLYWFQQKPGQSPQLLIYRMSNLNSGVPDRFSGSGSGTEFTLTISSLEPEDFAVYYCMQHLEYPITFGAGTKLEIKRTVAAPSVFIFPPSDEQLKSGTASVVCLLNNFYPREAKVQWKVDNALQSGNSQESVTEQDSKDSTYSLSSTLTLSKADYEKHKVYACEVTHQGLSSPVTKSFNRGEC |
| 2.41 | 4.3 | 5.5 | 2.19 | 7.04 | 2.84 | 15.3 | CD19 BRIDGE variant B34 (Fab) heavy: EVQLVESGGGLVKPGGSLKLSCAASGYTFTSYVMHWVRQAPGKGLEWIGYINPYNDGTKYNEKFQGRVTISSDKSISTAYMELSSLRSEDTAMYYCARGTYYYGTRVFDYWGQGTLVTVSSASTKGPSVFPLAPSSKSTSGGTAALGCLVKDYFPEPVTVSWNSGALTSGVHTFPAVLQSSGLYSLSSVVTVPSSSLGTQTYICNVNHKPSNTKVDKKVEPKSCHHHHHH light: DFPGHNYTTRNILPGLNITSTFHKTSGSGKEPKSSDKTHTGGGGSDIVMTQSPATLSLSPGERATLSCRSSKSLQNVNGNTYLYWFQQKPGQSPQLLIYRMSNLNSGVPDRFSGSGSGTEFTLTISSLEPEDFAVYYCMQHLEYPITFGAGTKLEIKRTVAAPSVFIFPPSDEQLKSGTASVVCLLNNFYPREAKVQWKVDNALQSGNSQESVTEQDSKDSTYSLSSTLTLSKADYEKHKVYACEVTHQGLSSPVTKSFNRGEC |
| 2.39 | 3.9 | 5.4 | 2.25 | 7.12 | 2.92 | 15.5 | CD19 BRIDGE variant B33 (Fab) heavy: EVQLVESGGGLVKPGGSLKLSCAASGYTFTSYVMHWVRQAPGKGLEWIGYINPYNDGTKYNEKFQGRVTISSDKSISTAYMELSSLRSEDTAMYYCARGTYYYGTRVFDYWGQGTLVTVSSASTKGPSVFPLAPSSKSTSGGTAALGCLVKDYFPEPVTVSWNSGALTSGVHTFPAVLQSSGLYSLSSVVTVPSSSLGTQTYICNVNHKPSNTKVDKKVEPKSCHHHHHH light: DFPGHNYTTRNILPGLNITSGGGGSEPKSSDKTHTGGGGSDIVMTQSPATLSLSPGERATLSCRSSKSLQNVNGNTYLYWFQQKPGQSPQLLIYRMSNLNSGVPDRFSGSGSGTEFTLTISSLEPEDFAVYYCMQHLEYPITFGAGTKLEIKRTVAAPSVFIFPPSDEQLKSGTASVVCLLNNFYPREAKVQWKVDNALQSGNSQESVTEQDSKDSTYSLSSTLTLSKADYEKHKVYACEVTHQGLSSPVTKSFNRGEC |

The remaining lines, values behind:

| Binder | MFI HisTag FITC in EGFR+ Population [1] | HisTag MFI Ratio of EGFR+/EGFR- [2] | HisTag MFI Ratio (background 0.44) [3] | MFI HisTag FITC [4] | MFI Bil03 AF647 [5] | MFIR HisTag FITC [6] | MFIR BIL03 AF647 [7] |
| --- | --- | --- | --- | --- | --- | --- | --- |
| CD19 BRIDGE variant B31 (Fab) heavy: EVQLVESGGGLVKPGGSLKLSCAASGYTFTSYVMHWVRQAPGKGLEWIGYINPYNDGTKYNEKFQGRVTISSDKSISTAYMELSSLRSEDTAMYYCARGTYYYGTRVFDYWGQGTLVTVSSASTKGPSVFPLAPSSKSTSGGTAALGCLVKDYFPEPVTVSWNSGALTSGVHTFPAVLQSSGLYSLSSVVTVPSSSLGTQTYICNVNHKPSNTKVDKKVEPKSCHHHHHH light: DFPGHNYTTRNILPGLNITSEPKSSDKTHTGGGGSDIVMTQSPATLSLSPGERATLSCRSSKSLQNVNGNTYLYWFQQKPGQSPQLLIYRMSNLNSGVPDRFSGSGSGTEFTLTISSLEPEDFAVYYCMQHLEYPITFGAGTKLEIKRTVAAPSVFIFPPSDEQLKSGTASVVCLLNNFYPREAKVQWKVDNALQSGNSQESVTEQDSKDSTYSLSSTLTLSKADYEKHKVYACEVTHQGLSSPVTKSFNRGEC | 2.67 | 3.9 | 6.1 | 2.13 | 5.83 | 2.77 | 12.7 |
| CD19 BRIDGE variant B32 (Fab) heavy: EVQLVESGGGLVKPGGSLKLSCAASGYTFTSYVMHWVRQAPGKGLEWIGYINPYNDGTKYNEKFQGRVTISSDKSISTAYMELSSLRSEDTAMYYCARGTYYYGTRVFDYWGQGTLVTVSSASTKGPSVFPLAPSSKSTSGGTAALGCLVKDYFPEPVTVSWNSGALTSGVHTFPAVLQSSGLYSLSSVVTVPSSSLGTQTYICNVNHKPSNTKVDKKVEPKSCHHHHHH light: DFPGHNYTTRNILPGLNITSGSEPKSSDKTHTGGGGSDIVMTQSPATLSLSPGERATLSCRSSKSLQNVNGNTYLYWFQQKPGQSPQLLIYRMSNLNSGVPDRFSGSGSGTEFTLTISSLEPEDFAVYYCMQHLEYPITFGAGTKLEIKRTVAAPSVFIFPPSDEQLKSGTASVVCLLNNFYPREAKVQWKVDNALQSGNSQESVTEQDSKDSTYSLSSTLTLSKADYEKHKVYACEVTHQGLSSPVTKSFNRGEC | 2.61 | 4 | 5.9 | 2.3 | 8.99 | 2.99 | 19.5 |
| CD19 BRIDGE variant B29 (Fab) heavy: EVQLVESGGGLVKPGGSLKLSCAASGYTFTSYVMHWVRQAPGKGLEWIGYINPYNDGTKYNEKFQGRVTISSDKSISTAYMELSSLRSEDTAMYYCARGTYYYGTRVFDYWGQGTLVTVSSASTKGPSVFPLAPSSKSTSGGTAALGCLVKDYFPEPVTVSWNSGALTSGVHTFPAVLQSSGLYSLSSVVTVPSSSLGTQTYICNVNHKPSNTKVDKKVEPKSCHHHHHH light: DFPGHNYTTRNILPGLNITSTFHKTSGSGKGSEPKSSDKTHTGSDIVMTQSPATLSLSPGERATLSCRSSKSLQNVNGNTYLYWFQQKPGQSPQLLIYRMSNLNSGVPDRFSGSGSGTEFTLTISSLEPEDFAVYYCMQHLEYPITFGAGTKLEIKRTVAAPSVFIFPPSDEQLKSGTASVVCLLNNFYPREAKVQWKVDNALQSGNSQESVTEQDSKDSTYSLSSTLTLSKADYEKHKVYACEVTHQGLSSPVTKSFNRGEC | 2.25 | 4.2 | 5.1 | 2.33 | 7.44 | 3.03 | 16.2 |
